Data set [1] deals with the molecule itself. Nature of the data set: cryo-EM structure; eIF2αP/eIF2B complex: six-fold molar excess of eIF2αP added to purified eIF2B (GP5949), fractionated on Superose 6 in 20 mM Tris-HCl, 100 mM KCl, 1 mM TCEP, pH 7.5; core map 3.9 Å, lateral densities 8-18 Å; half-particles classified by localised reconstruction.
The target in data set [2] is T1, eIF2Bδ (subunit of eIF2B) (S. cerevisiae, UniProt P12754 1-651).
T1 construct: eIF2B delta subunit, S. cerevisiae; Stood in the assay as a subunit of the eIF2B decamer; also called eIF2B delta; source: S. cerevisiae strains GP5949 and GP7055, purified as part of Flag-eIF2B
T1 sequence: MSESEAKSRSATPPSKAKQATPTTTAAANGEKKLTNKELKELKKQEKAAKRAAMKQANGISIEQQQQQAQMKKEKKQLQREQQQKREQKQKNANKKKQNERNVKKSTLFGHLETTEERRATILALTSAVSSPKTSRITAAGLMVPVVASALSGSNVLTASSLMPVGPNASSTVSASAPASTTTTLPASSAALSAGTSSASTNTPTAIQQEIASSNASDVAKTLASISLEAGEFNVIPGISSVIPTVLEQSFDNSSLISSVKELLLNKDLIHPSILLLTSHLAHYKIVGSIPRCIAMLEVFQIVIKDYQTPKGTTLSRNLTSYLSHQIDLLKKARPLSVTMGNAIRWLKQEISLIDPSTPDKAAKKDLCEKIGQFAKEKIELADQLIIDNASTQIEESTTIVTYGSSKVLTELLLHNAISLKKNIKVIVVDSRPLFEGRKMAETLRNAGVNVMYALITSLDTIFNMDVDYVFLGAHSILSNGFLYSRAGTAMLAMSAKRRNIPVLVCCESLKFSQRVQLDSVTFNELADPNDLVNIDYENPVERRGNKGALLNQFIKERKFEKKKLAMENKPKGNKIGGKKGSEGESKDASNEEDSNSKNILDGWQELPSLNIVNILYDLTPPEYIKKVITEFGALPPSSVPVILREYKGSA
Described as above. The following applies: both partners purified.

B1: eIF2Bα (subunit of eIF2B) (natural protein, S. cerevisiae)
chain: MSEFNITETYLRFLEEDTEMTMPIAAIEALVTLLRIKTPETAAEMINTIKSSTEELIKSIPNSVSLRAGCDIFMRFVLRNLHLYGDWENCKQHLIENGQLFVSRAKKSRNKIAEIGVDFIADDDIILVHGYSRAVFSLLNHAANKFIRFRCVVTESRPSKQGNQLYTLLEQKGIPVTLIVDSAVGAVIDKVDKVFVGAEGVAESGGIINLVGTYSVGVLAHNARKPFYVVTESHKFVRMFPLSSDDLPMAGPPLDFTRRTDDLEDALRGPTIDYTAQEYITALITDLGVLTPSAVSEELIKMWYD
notes: eIF2B alpha subunit, S. cerevisiae; Stood in the assay as a subunit of the eIF2B decamer; also called eIF2B alpha; source: S. cerevisiae strains GP5949 and GP7055, purified as part of Flag-eIF2B
Take B1: the binding result in data set [1] was “binds”.

B2: eIF2Bβ (subunit of eIF2B) (natural protein, S. cerevisiae)
chain: MSSQAFTSVHPNAATSDVNVTIDTFVAKLKRRQVQGSYAIALETLQLLMRFISAARWNHVNDLIEQIRDLGNSLEKAHPTAFSCGNVIRRILAVLRDEVEEDTMSTTVTSTSVAEPLISSMFNLLQKPEQPHQNRKNSSGSSSMKTKTDYRQVAIQGIKDLIDEIKNIDEGIQQIAIDLIHDHEILLTPTPDSKTVLKFLITARERSNRTFTVLVTEGFPNNTKNAHEFAKKLAQHNIETLVVPDSAVFALMSRVGKVIIGTKAVFVNGGTISSNSGVSSVCECAREFRTPVFAVAGLYKLSPLYPFDVEKFVEFGGSQRILPRMDPRKRLDTVNQITDYVPPENIDIYITNVGGFNPSFIYRIAWDNYKQIDVHLDKNKA
notes: eIF2B beta subunit, S. cerevisiae; Stood in the assay as a subunit of the eIF2B decamer; also called eIF2B beta; source: S. cerevisiae strains GP5949 and GP7055, purified as part of Flag-eIF2B
As to B2, in data set [2], the binding result is on record as “binds”.

The values are drawn from paper PMC6513899, “The structural basis of translational control by eIF2 phosphorylation” (Nature Communications, 2019).
